Laboratory results: US20150044137A1 (UNITED STATES OF AMERICA AS REPRESENTED BY THE SECRETARY …, published 2015)

Assays:
[1] = biological target: T1, Yu2 gp120 HIV-1 Env protein (HIV-1 (strain Yu2), UniProt P35961 32-498)
RSC3 probe [2] = experiment: ELISA-type plate assay (OD450), mAb titrated on RSC3 [panel VRC14b]
RSC3 probe [3] = experiment: ELISA-type plate assay (OD450), mAb titrated on RSC3 [panel VRC14]
RSC3 probe [4] = experiment: ELISA-type plate assay (OD450), mAb titrated on RSC3 [panel VRC14c]
[5] = biological target: T1, Yu2 gp120 HIV-1 Env protein; experiment: ELISA-type plate assay (OD450), mAb titrated on Yu2 gp120 WT

B1: VRC13 (antibody, V domains shown)
VH: QVQLVQPGTAMKSLGSSLTITCRVSGDDLGSFHFGTYFMIWVRQAPGQGLEYMGGILPSTKTPTYAHKFRGRVSISAPGVPPVLSLALTNLTYDDTATYFCARERGRHFEPKNRDNLEGKFFDLWGRGTFVRVSP
VL: QSALTQPASVSGSPGQSINISCAGRSDRVSWYQQRPNGVPKLLMFDVYRRPSGVSDRFSGSHSGDTAFLTISGLQTEDEADYYCTSHPYAFGAGTKVNVLR
IC50 (read off the curve) [1]: ~400 ng/mL

B2: VRC14b (antibody, V domains shown)
VH: QVQLVQSGTALKSPGSSAKLSCTVLGDEFGTYFISWIRQAPGQGLEWVGGIVPHSQLQSSAQKFHGRITISAGAGVTPPVVSLQLTNLTFEDTGTYFCARERGRHRDPKTGDALRGRYFDFWGRGTGVRVST
VL: QSALTQPAFVSGSPGQSITLSCTLGTEDVSWYQQRPNSAPRLIIFDVKKRPSDVSDRFSGHNSDTAAFLTISELRPEDEAEYFCTSWPYRFGRGTKVDVA
EC50 (read off the curve) (RSC3 probe [2]): ~7 ng/mL

B3: VRC14 (antibody, V domains shown)
VH: QVQLVQSGTALKSPGSSAKLSCTVLGDEFGTYFISWIRQAPGQGLEWVGGIVPHSQLQSSAQKFHGRIIISAGAGVTPPVVSLQLTNLTFEDTGTYFCARERGRHRDPKTGDALRGRYFDFWGRGTGLRVST
VL: QSALTQPAFVSGSPGQSITLSCSLGTADVSWYQQRPNSAPRLIIFDVKKRPSDVSDRFSGHNSDTAAFVTISELRPEDEAEYFCTSWPYRFGPGTKVDVAR
notes: also called mAb VRC14
EC50 (read off the curve) (RSC3 probe [3]): ~6 ng/mL

B4: VRC14c (antibody, V domains shown)
VH: QVQLVQSGTALKSPGSSAKLSCTVLGDEFGTYFISWIRQAPGQGLEWVGGIVPHSQLQSSAQKFHGRIIISAGAGVTPPVVSLQLTNLTFEDTGTYFCARERGRHRDPKTGKAPRGRYFDFWGRGTGVTVSA
VL: QSALTQPAFVSGSPGQSITLSCTLGTEDVSWYQQRPNSAPRLIIFDVKKRPSDVSDRFSGHNSDTAAFLTISELRPEDEADYFCTSWPYRFDRGTKVDVA
EC50 (read off the curve) (RSC3 probe [4]): ~20 ng/mL

B5: VRC16b (antibody, V domains shown)
VH: EVQLSESGGGVVKPGGSLRLSCEASGFTFSNYAMSWVRQAPGKGLEWVSVTGGHGTYGYYGEFVKGRFTISRDHSMDTVYLQMNRLRVEDTAVYYCVRTPYYHESSGYYYRAGNYFDFWGKGTLVIVSA
VL: DIQMTQSPSSLSASVGDRVTITCRASQDIANYLNWYQKKSGTPPKLLIFAATNLHRGVSPRFSGSGSGTHFSLTITNVQYEDFANYFCQHSFGTIGTFGQGTWVDIR
EC50 (read off the curve) [5]: ~20 ng/mL

B6: VRC16c (antibody, V domains shown)
VH: EVQLSESGGGFVKPGGSLRLSCEASGFTFNNYAMSWVRQAPGKGLEWVSVTSAHGGSAYYGEFVKGRFTMSRDHFIDTVYLEMNRLTVEDTAVYYCVRVTFYHEGSGYYYRAGNYFDSWGKGTRVVVSA
VL: DIQMTQSPSSLSASIGDRVTITCRASQDIANYLNWYQKKSGTPPKLLIFAATNLHRGVSPRFTGSGHGTHFSLTITNVQHEDFGHYFCQQSFATVGSFGQGTWVDIR
EC50 (read off the curve) [5]: ~5 ng/mL

B7: VRC16d (antibody, V domains shown)
VH: EVQLSESGGGFVKPGGSLRLSCEASGFTFNNYAMSWVRQAPGKGLEWVSVTSAHGGSAYYGEFVKGRFTMSRDHFIDTVYLEMNGLTVEDTAVYYCVRVTFYHEGSGYYYRAGNYFDSWGKGTRVVVSA
VL: DIQMTQSPSSLSASIGDRVTITCRASQDIANYLNWYQKKSGTPPKLLIFAATNLHRGVSPRFTGSGHGTHFSLTITNVQHEDFGNYFCQQSFATVGSFGQGTWVDIR
EC50 (read off the curve) [5]: ~5 ng/mL
